Patent US20260201030A1 (EVOPOINT BIOSCIENCES, published 2026)
Positions count from the first letter of the chain named.

B1: 25C7A5 (antibody, V domains shown)
VH: EVQLQQPGAELVKPGTSVKLSCKASGYTFTNYWLHWVRQRPGQGLEWIGMMHPISGSSNNNERFKSKATLTVDKSSTTAYMQLSRMTSEDSAVYYCARGLLSAMDYWGQGTSVTVSS
VL: CIVLTQSPKSMSMSVGERVTLSCKASENVKTYVSWYQQRPEQSPKLLIYEASNRYTGVPDRFTGSGSATVFTLTISSVQTEDLANYFCGQTYSFPPTFGSGTKLEIK
notes: Murine monoclonal antibody purified from hybridoma supernatant
B2: 40G11H2 (antibody, V domains shown)
VH: EVQLQQSGAELARPGASVKLSCKASGYTFTSYGIRWVKQRTGQGLEWIGEIYPRGGNTYYDEKFKGKATLTADKSSSTAYMGLRSLTSEDSAVYFCARADYGNSFAYWGQGTLVTVSA
VL: DIVMTQSPSSLTVTAREKVTMSCKSSQSLLNSGNQKNYLTWYHQKPGQPPKLLIYWASTRESGVPDRFTGSGSGTDFTLTISSVQAEDLAVYFCQNAYFYPFTFGTGTKLEIK
notes: Murine monoclonal antibody
B3: 32F7A6 (antibody, V domains shown)
VH: QIQLVQSGPELRKPGETVKISCKASGYTFTAYTMGWVKQAPGKGLEWMAWINTYSGVPTYAADFKGRFAFSLETSASTAYLLINNLKNEDTATYFCARGVRGNSMDYWGQGTSVTVSS
VL: DIVETQSPSSLTVTVGERVTLSCKSSQSLLNSGNQRNYLTWSQQKPGQPPKLLIYWASTRESGVPNRFTGGGSGTYFTLTISSVQVEDLAVYYCQNTYSFPFTFGTGTKLEIK
notes: as for B1
B4: 8H11A10 (antibody, V domains shown)
VH: QVQLKESGPVLVAPSQSLSITCTVSGFSLTNYGVHWVRQPPGKGLEWLGVIWSGGRTNYNSALMSRLSISKDNSKSQVFLKMNSLQTDDTAMYYCAKRDGIYGDYWGQGTSVTVSS
VL: DIVETQSPSSLTVTAGEKVTMSCKSSQSLLNSGNQKNYLTWYQQKPGQSPKLLIYWASTRESGVPDRFTGSGFGTDFTLTISSVQAEDLAVYYCQNDYIYPLTFGAGTKLELK
notes: Murine monoclonal antibody
B5: 23F2F2 (antibody, V domains shown)
VH: QVQLKESGGGLVQPGGSMKLSCAASGFTFSDAWMNWVRQSPEKGLEWVAEIRNKADYHATHYVESVTGRFTISRDDSKSSVYLQMNRLRAEDTGIYYCTRNYGSRFDYWGQGTTLTVSS
VL: B4 VL with K36R, Q48H, S49P, F73S, I81V, S82T, I99F, T103A, A106T
notes: as for B1
B6: 2D3A11 (antibody, V domains shown)
VH: EVQLQQSGPELVKPGASVRMSCKASGYTFTSYVVHWVKQKPGQGLEWIGYINPYNADSKYNERFKGKATLTSDKSSNSAYMELSSLTSEDSAVYYCSRSYYGNSFDVWGAGTTVTVSS
VL: DIVMTQSPSSLTVTTGEKVTMSCKSSQSLLNSGNQKNYLTWYQQKPGQSPKLLFFWASTRQSGVPDRFTGSGSGTYFTLTISSVQAEDLAVYYCQNDYYFPFTFGTGTKLEIK
notes: as for B1

What follows are binders tested against T1, human Claudin18.2 (human, UniProt P56856-2 1-261) (assay: cell-based ELISA on fixed HEK293T-Claudin18.2 (human) cells).
T1 construct: whole, on cells; also called CLDN18.2; HEK293T-Claudin18.2 (human)
Procedure: The affinity of the anti-human Claudin18.2 murine monoclonal antibodies was evaluated by cell-based ELISA. The experimental procedures were as follows: The day before the experiment, HEK293T-Claudin18.2 (human) cells were plated in a 96-well plate at 5×10⁴ cells/well. On the day of the experiment, the supernatant was removed, the cells in each well were washed once with 300 μL of PBS, and 100 μL of 4% paraformaldehyde was added to each well for fixation at room temperature for 20 min. Paraformaldehyde was then removed, and the cells in each well were washed twice with 300 μL of PBS. 100 μL of 2% BSA (in PBS) was added to each well, and the mixture was blocked at 37° C. for 2 h. After removing the blocking solution, each antibody subjected to gradient dilution (diluted with 2% BSA (in PBS), starting at […], in a 3-fold gradient, for a total of 11 concentration points) was added to the plate at 100 μL/well, and the mixture was incubated at 37° C. for 2 h. The supernatant was removed, and the cells in each well were washed three times with 300 μL of PBST. 100 μL of an anti-mouse IgG HRP secondary antibody (Jackson, cat #115-035-003) in 2% BSA was added to each well, and the mixture was incubated at 37° C. for 1 h. The secondary antibody was then removed, and the cells in each well were washed five times with 300 μL of PBST, followed by the addition of 100 μL of a TMB substrate (Huzhou InnoReagents Co., Ltd.) per well for color development for 5-20 min. The reaction was stopped by adding 50 μL of 2 N HCl to each well, and OD_{450 nm} values were read on a microplate reader (manufacturer: MD, model: SpectraMax). The values obtained were plotted by GraphPad Prism to calculate the EC₅₀ value.

EC50 [ng/mL] | Binder
10.5 | B1
7.38 | B2
2.4 | B3
12.3 | B4
6.02 | B5
8.14 | B6

These binders were tested against T2, human Claudin18.1 (human, UniProt P56856 1-261) (assay: FACS on HEK293T-Claudin18.1 (human) cells).
T2 construct: whole, on cells; also called CLDN18.1; HEK293T-Claudin18.1 (human)

binding result | Binder
no binding (tested: 50 µg/mL) | B1
no binding (tested: 50 µg/mL) | B2
no binding (tested: 50 µg/mL) | B4
no binding (tested: 50 µg/mL) | B5
no binding (tested: 50 µg/mL) | B6

Each binder was assayed against T2, human Claudin18.1 (assay: FACS on HEK293T-Claudin18.1 (human) cells, antibody 50 µg/mL).
Procedure: The specificity of the anti-human Claudin18.2 murine monoclonal antibodies was evaluated by flow cytometry (FACS). The experimental procedures were as follows: The adherent cultured HEK293T-Claudin18.1 (human) cells were digested, collected by centrifugation, and washed three times with pre-cooled PBS. The cells were resuspended in 1% BSA (in PBS) and added to a 96-well pointed bottom plate at 3×10⁵ cells/well, with a volume of 50 μL per well. Each test antibody was diluted to 100 μg/mL with […] (in PBS) and added to the cells at 50 μL/well to achieve a final antibody concentration of 50 μg/mL. The mixture was well mixed and incubated at 4° C. for 1 h. The cells were collected by centrifugation, washed three times with pre-cooled PBS, and resuspended in 50 μL of 1% BSA (in PBS). 1 μL of a fluorescent secondary antibody (Biolegend, cat #405308) was added to each well, and the mixture was well mixed and incubated at 4° C. for 0.5 h. The cells were collected by centrifugation, washed three times with pre-cooled PBS, resuspended in 200 μL of PBS, and assayed on a machine (flow cytometer model: Sony-LE-SA3800GA). The APC fluorescence signal value was obtained, and the gate was set using an isotype control antibody as a negative control to obtain the percentage of positively stained cells (positive rate (0%)).

Mean APC fluorescence signal value | Positive rate (%) | Binder
123 | 0.87 | B1
160 | 0.98 | B2
411 | 0 | B3
175 | 1.21 | B4
222 | 2.16 | B5
134 | 0.25 | B6
